# Patent publication US6673902B2, “Cyclin D binding factor, and uses thereof” (St. Jude Children's Research Hospital, priority 1996, dated 2004)
# System: DMP1-responsive promoter (pGL2BS2)
# Test: Transactivation of luciferase reporter plasmid under control of a DMP1-responsive promoter in NIH-3T3 fibroblasts
# Type: cell-based, mouse
# Details: Table 4; DMP1 coexpressed with the additive named as label (DMP1 row: no additive); vector without insert set to 1.0
# Source text: Coexpression of a D-type cyclin with DMP1 overrides the ability of DMP1 to transactivate a luciferase gene under the control of an artificial DMP1-responsive promoter (Table 4), as well as the ability of DMP1 to inhibit cell growth.
molecule,measurement,value
"cyclin H: cyclin coexpressed with DMP1 (protein, UniProt Q61458 1-323, looked up) Cyclin-H: MYHSSSQKRHWTFASEEQLARLRADANRKFKCKAVANGKVLPNDPVFLEPHEELTLCKYYEKRLLEFCSVFKPAMPRSVVGTACMYFKRFYLNNSVMEYHPRIIMLTCAFLACKVDEFNVSSPQFVGNLRESPLGQERALEQILEYELLLIQQLNFHLIVHNPYRPFEGFLIDIKTRYPMLENPEILRKTADDFLSRIALTDAYLLYTPSQIALTAILSSASRAGITMESYLSESLMLKENRTCLSQLLDIMKSMRNLVKKYEPPRSDEVAVLKQKLERCHSSDLALNAVTKKRKGYEDDDYVSKKPKQEEEEWTDDDLVDSL",Luciferase Activity,5.5
